# Measurements from PMC2266796, “The Assembly of the Plasmodial PLP Synthase Complex Follows a Defined Course” (PLoS ONE, 2008).
# B1: PfPdx1 wild-type (Plasmodium falciparum Pdx1, Strep-tagged) (enzyme, P. falciparum, UniProt C6KT50 1-301, looked up)
# chain: MENHKDDAVLLKHGWCEMLKGGVIMDVKSVEQAKIAEEAGAIGVMVLENIPSELRNKEGVARSVDPSKVEEIKKCVSINVLAKVRIGHFVEAQILEELKIDMIDESEVLTIADEMHHIDKHKFKTPFVCGCTNLGEALRRISEGASMIRTKGEAGTGNIIEAIKHIRTVNNEIKYLCSLSDSEVYHFAKKINAPIDLVLLTKKLKRLPVVNFAAGGVATPADAAMCMQLGMDGVFVGSGIFESENPRKMAASIVSAVSNFNNPKILLDVSMNLGKAMCGSTRVSDKWKNKNEEHTKFLTPQ
# notes: molecular mass used for light scattering 34.2 kDa; also called PfPdx1 WT; plasmodial Pdx1; source: E. coli BLR (DE3); purified (Strep-Tactin) for light scattering; cell homogenate for co-purification; copies: 12
# B2: PfPdx1 K151A (enzyme)
# chain: MENHKDDAVLLKHGWCEMLKGGVIMDVKSVEQAKIAEEAGAIGVMVLENIPSELRNKEGVARSVDPSKVEEIKKCVSINVLAKVRIGHFVEAQILEELKIDMIDESEVLTIADEMHHIDKHKFKTPFVCGCTNLGEALRRISEGASMIRTAGEAGTGNIIEAIKHIRTVNNEIKYLCSLSDSEVYHFAKKINAPIDLVLLTKKLKRLPVVNFAAGGVATPADAAMCMQLGMDGVFVGSGIFESENPRKMAASIVSAVSNFNNPKILLDVSMNLGKAMCGSTRVSDKWKNKNEEHTKFLTPQ
# notes: Pdx1 of Plasmodium falciparum in pASK-IBA3, point mutant; source: E. coli BLR (DE3); purified (Strep-Tactin) for light scattering; cell homogenate for co-purification
# B3: PfPdx1 DKK (D26A/K83A/K151A) triple mutant (enzyme)
# chain: MENHKDDAVLLKHGWCEMLKGGVIMAVKSVEQAKIAEEAGAIGVMVLENIPSELRNKEGVARSVDPSKVEEIKKCVSINVLAAVRIGHFVEAQILEELKIDMIDESEVLTIADEMHHIDKHKFKTPFVCGCTNLGEALRRISEGASMIRTAGEAGTGNIIEAIKHIRTVNNEIKYLCSLSDSEVYHFAKKINAPIDLVLLTKKLKRLPVVNFAAGGVATPADAAMCMQLGMDGVFVGSGIFESENPRKMAASIVSAVSNFNNPKILLDVSMNLGKAMCGSTRVSDKWKNKNEEHTKFLTPQ
# notes: Pdx1 of Plasmodium falciparum in pASK-IBA3, triple mutant; Hexamer without additive; about half dodecamer with 10 mM glutamine; also called DKK to AAA (D26/K83/K151); DKK mutant; source: E. coli BLR (DE3); purified (Strep-Tactin) for light scattering; cell homogenate for co-purification
# B4: PfPdx2HIS wild-type (Plasmodium falciparum Pdx2 with C-terminal 6x His-tag) (enzyme)
# chain: MSEITIGVLSLQGDFEPHINHFIKLQIPSLNIIQVRNVHDLGLCDGLVIPGGESTTVRRCCAYENDTLYNALVHFIHVLKKPIWGTCAGCILLSKNVENIKLYSNFGNKFSFGGLDITICRNFYGSQNDSFICSLNIISDSSAFKKDLTAACIRAPYIREILSDEVKVLATFSHESYGPNIIAAVEQNNCLGTVFHPELLPHTAFQQYFYEKVKNYKYS
# What was measured:
# [1] = biological target: the molecule itself; experiment: SEC-MALS; 100 ug purified Strep-tagged PfPdx1 on Superdex 200 10/30 with static light scattering (miniDAWN Tristar); 100 mM Tris-HCl pH 8.0, 150 mM NaCl, no amino acid added
# [2] = biological target: the molecule itself; experiment: SEC-MALS; as a2, with 10 mM glutamine in the elution buffer
# [3] = biological target: PfPdx1 D26A (P. falciparum, UniProt C6KT50 1-301, D26A); experiment: cell-based or functional assay
# [4] = biological target: B3; experiment: cell-based or functional assay
# [5] = biological target: B2; experiment: cell-based or functional assay
# [6] = biological target: PfPdx1 K83A (P. falciparum, UniProt C6KT50 1-301, K83A); experiment: cell-based or functional assay
# [7] = biological target: PfPdx1 ERR (E136A/R139A/R140A) triple mutant (P. falciparum, UniProt C6KT50 1-301, E136 to alanine | R139 to alanine | R140 to alanine); experiment: cell-based or functional assay
binder,measurement,setting,value
B1,stoichiometry N,[1],12
B2,stoichiometry N,[1],6
B3,stoichiometry N,[2],12
same,stoichiometry N,[1],6
B4,glutaminase activity of PfPdx2 mixed equimolar with the PfPdx1 variant,[3],285 mU mg^−1
same,glutaminase activity of PfPdx2 mixed equimolar with the PfPdx1 variant,[4],274 mU mg^−1
same,glutaminase activity of PfPdx2 mixed equimolar with the PfPdx1 variant,[5],251 mU mg^−1
same,glutaminase activity of PfPdx2 mixed equimolar with the PfPdx1 variant,[6],291 mU mg^−1
same,glutaminase activity of PfPdx2 mixed equimolar with the PfPdx1 variant,[7],286 mU mg^−1
